Test results published in US20200181597A1, “Composition and Application of Arginine-depleting Agents for Cancer, Obesity, Metabolic Disorders, and Related Complications and Comorbidities” (THE HONG KONG POLYTECHNIC UNIVERSITY, priority 2018, published 2020).

Tests used:
LOVO = test: cells; settings: LOVO, Day 3
Method: (§1) The in vitro efficacy of ABD and rhArg fusion protein was tested on human colon cancer cell lines. Human colon cancer cell lines (HCT116, LOVO and HT29) were seeded in 96-well plate at densities of 5×10^3 cells/well. After 1 day of incubation, the culture medium was replaced with medium containing different concentrations (2, 0.4, 0.08, 0.016 and 0.0032 U/ml) of N-ABD094-rhArg (SEQ ID NO: 50). MTT assay was conducted at Day 3 [3 days after N-ABD094-rhArg (SEQ ID NO: 50) treatment] to determine the IC50 values. The culture medium was replaced with MTT solution (1 mg/ml) (Invitrogen) and incubated at 37° C. for 4 h. After incubation, MTT solution was replaced with dimethyl sulfoxide (DMSO), and the absorbance at 570 nm was measured with a reference of 650 nm. The cell viability was determined by dividing the absorbance of N-ABD094-rhArg-treated cells by the average absorbance of untreated cells. […] Three independent sets of experiments (n=3) were performed for each cell line.
(§2) MTT assay was conducted at Day 3. Three independent sets of experiments (n=3) were performed for each cell line.
(§3) For drug-combination assay, a non-constant ratio analysis was performed (Hastak et al., 2010, Cancer Res. 70(20):7970-7980). Colon cancer cells were seeded and after 1 day of incubation, the culture medium was replaced with medium containing different concentrations of N-ABD094-rhArg (SEQ ID NO: 50) (2, 0.4, 0.08, 0.016, 0.0032 U/ml) combined with fixed amount of CQ according to its IC50. MTT assay was conducted at Day 3. The combination index (CI) of combined N-ABD094-rhArg (SEQ ID NO: 50) and CQ treatment was analyzed by software CalcuSyn version 2.1. Three independent sets of experiments (n=3) were performed for each cell line.

HT29 = test: cells; settings: HT29, Day 3
Method: as §1, §2, §3

HCT116 = test: cells; settings: HCT116, Day 3
Method: as §1, §2, §3

[1] = Enzyme kinetics after metal ion substitution; type: biochemical
Method: Wild type arginase typically includes a Mn^2+ metal ion (D′Antonio & Christianson, 2011, Biochemistry, 50:8018-27). […] Purified N-ABD094-rhArg (SEQ ID NO: 50) in 20 mM Tris-HCl buffer (pH 7.4) was mixed with 20 mM of different divalent metal ions (Mn^2+, Ni^2+ or Co^2+), and was incubated at 52-55° C. for 15-60 min and then buffer exchanged with PBS buffer (pH 7.4).
Samples were subjected to enzyme activity and enzyme kinetic studies to determine the specific activity and catalytic efficiency (kcat/Km). Samples were applied to inductively coupled plasma atomic emission spectroscopy (ICP-OES, Agilent 700 Series ICP optical emission spectrometer) for quantitative analysis of metal content.

[2] = LFD-fed mice treated for 8 months: anti-drug antibody and safety; type: in vivo, C57BL/6J male mice
Method: FIG. 56 illustrates that C57BL/6J male mice fed a LFD and received an intraperitoneal injection of 500U N-ABD094-rhArg (SEQ ID NO: 50) [LFD(rhArg) group] once a week for 8 months starting from 5 week old had developed non-neutralizing anti-drug antibody. (A) Using an ELISA assay, anti-rhArg antibodies, with an average antibody titer of 10^8, could be detected in the plasma of LFD-fed mice treated with N-ABD094-rhArg. (B) The plasma was incubated with 1,000U/mL N-ABD094-rhArg (rhArg*) for 1 hr followed by measurement of arginase activity. There was no reduction in arginase activity, showing that the antibodies generated in the animal against the drug were not neutralizing antibodies. Data are expressed as mean±SEM, n=3 for each group.
Generation of neutralizing antibodies may affect the pharmacodynamics, pharmacokinetic, stability and efficacy of a drug. To determine the immunogenic response, 8 week old C57BL/6J male mice fed a LFD received i.p. injection of 500U of N-ABD094-rhArg (SEQ ID NO: 50), or saline as vehicle control, at 7-day intervals for 8 months.
To assess the safety of long-term use, serum and urine samples from LFD-fed mice treated with N-ABD094-rhArg (SEQ ID NO: 50) for 8 months were collected for analysis of ALT and AST, which are commonly used biomarkers of liver damage, and serum creatinine and urine albumin/creatinine ratio for assessing kidney functions.

[3] = Prevention of HFD-induced obesity, male mice; type: in vivo, C57BL/6J male mice
Excerpt: To determine the efficacy of N-ABD094-rhArg (SEQ ID NO: 50) in preventing mice from diet-induced obesity and associated metabolic disorders, C57BL/6J male mice were fed a high-fat diet containing 60 kcal % fat (HFD; Research Diets, D12492) from 8 week old for 12 weeks, and concurrently received i.p. injection of 200-300U N-ABD094-rhArg (SEQ ID NO: 50) or saline as vehicle control at 7-day intervals. C57BL/6J mice fed a matched low fat diet containing 10 kcal % fat (LFD; Research Diets, D12450J) and injected with saline served as the lean control of various measurements.
Two cohorts, with n=5 in each group, had been separately conducted. Mice were housed in group of 5. Similar results were obtained in the two independent cohorts. Data of one cohort of mice were summarized in Examples 18-22.

- IC50 (LOVO): 0.38 U/ml
- IC50 (HT29): 0.58 U/ml
- IC50 (HCT116): 0.22 U/ml
B1: N-ABD094-rhArg: albumin binding domain ABD094 fused N-terminally to recombinant human arginase I, SEQ ID NO: 50 (protein)
chain: MHHHHHHDEAVDANSLAEAKEAANAELDSYGVSDFYKRLIDKAKTVEGVEALKDAILAALPSGSNNNNNNGSGGMSAKSRTIGIIGAPFSKGQPRGGVEEGPTVLRKAGLLEKLKEQECDVKDYGDLPFADIPNDSPFQIVKNPRSVGKASEQLAGKVAEVKKNGRISLVLGGDHSLAIGSISGHARVHPDLGVIWVDAHTDINTPLTTTSGNLHGQPVSFLLKELKGKIPDVPGFSWVTPCISAKDIVYIGLRDVDPGEHYILKTLGIKYFSMTEVDRLGIGKVMEETLSYLLGRKKRPIHLSFDVDGLDPSFTPATGTPVVGGLTYREGLYITEEIYKTGLLSGLDIMEVNPSLGKTPEEVTRTVNTAVAITLACFGLAREGNHKPIDYLNPPK
modifications: Mn2+; N-ABD094-rhArg, Synthesized in the Lab
- Km [1]: 1370 to 1890 µM
- kcat [1]: 82 to 98 s⁻¹
- average anti-rhArg antibody titer in plasma (ELISA) ([2]; 500U i.p. weekly for 8 months): 10^8
- serum ALT, AST, creatinine and urine albumin/creatinine ratio vs vehicle ([2]; 500U weekly for 8 months): did not show any significant differences
- plasma arginine concentrations throughout the study period ([2]; 500U weekly for 8 months, Biochrom 30 detection limit): < 3 µM
- vascular reactivity of isolated arteries (phenylephrine, acetylcholine, sodium nitroprusside) vs vehicle ([2]; 500U weekly for 8 months, wire myography): no significant differences
- effect of anti-drug antibodies on arginase activity ([2]; plasma incubated with 1,000U/mL drug for 1 hr): did not have neutralizing effects
- HFD-induced downregulation of Acox1 in BAT ([3]; 12 weeks HFD): block the downregulation
- HFD-induced upregulation of adipogenic transcription factors and lipogenic enzymes in the liver ([3]; 12 weeks HFD): significantly suppress
- mRNA of Ucp1 and Pgc1α in BAT ([3]; 12 weeks HFD): significantly upregulated
- mRNA of proinflammatory adipokines (Mcp1, Il1b, Tnfa) in perigonadal WAT ([3]; 12 weeks HFD): suppress the upregulation
- serum levels of Mcp1 (ELISA) ([3]; 12 weeks HFD): suppress an elevation
- weight of kidney, pancreas and heart ([3]; 12 weeks HFD): effectively prevent weight gain
- weight gain and expansion of WAT caused by HFD ([3]; 200-300U i.p. at 7-day intervals, 12 weeks, concurrent with HFD): effectively prevented
- adipocyte hypertrophy in WAT (histology) ([3]; 200-300U weekly, 12 weeks, HFD): prominently suppressed
- mRNA of Pparg, Srebp1c, Acc1, Scd1 in gWAT ([3]; 200-300U weekly, 12 weeks, HFD): dramatic downregulation
- mRNA of Pparg, Srebp1c, Acc1, Scd1 in skeletal muscle ([3]; 200-300U weekly, 12 weeks, HFD): significantly downregulated
- development of hyperglycemia and hyperinsulinemia (fasting blood glucose, plasma insulin, HOMA-IR) ([3]; concurrent weekly treatment, HFD): completely prevent
- development of HFD-induced impaired glucose tolerance (GTT) ([3]; concurrent weekly treatment, GTT at 5 and 10 weeks): completely prevent
- development of HFD-induced insulin resistance (ITT) ([3]; concurrent weekly treatment, ITT at 6 and 11 weeks): completely prevent
- development of hyperleptinemia, hypercholesterolemia, hypertriglyceridemia, hyper-free fatty acidemia ([3]; fasting plasma at 12 weeks of HFD): completely prevent
